From US10138283 (AMBRX, dated 2018)
Where two headings read alike, the source gives them in different places. One block for each molecule: values may come before it. [ ]: non-standard residue; d: D form. Phe(4-Ac) = CC(=O)c1ccc(C[C@H](N)C(=O)O)cc1

Experiments:
Test in all cases: cell-based or functional assay
[1] = molecular target: T1, G-CSF receptor on M-NFS60 cells (UniProt P40223 26-837, limits assumed)
T1 sequence (looked up): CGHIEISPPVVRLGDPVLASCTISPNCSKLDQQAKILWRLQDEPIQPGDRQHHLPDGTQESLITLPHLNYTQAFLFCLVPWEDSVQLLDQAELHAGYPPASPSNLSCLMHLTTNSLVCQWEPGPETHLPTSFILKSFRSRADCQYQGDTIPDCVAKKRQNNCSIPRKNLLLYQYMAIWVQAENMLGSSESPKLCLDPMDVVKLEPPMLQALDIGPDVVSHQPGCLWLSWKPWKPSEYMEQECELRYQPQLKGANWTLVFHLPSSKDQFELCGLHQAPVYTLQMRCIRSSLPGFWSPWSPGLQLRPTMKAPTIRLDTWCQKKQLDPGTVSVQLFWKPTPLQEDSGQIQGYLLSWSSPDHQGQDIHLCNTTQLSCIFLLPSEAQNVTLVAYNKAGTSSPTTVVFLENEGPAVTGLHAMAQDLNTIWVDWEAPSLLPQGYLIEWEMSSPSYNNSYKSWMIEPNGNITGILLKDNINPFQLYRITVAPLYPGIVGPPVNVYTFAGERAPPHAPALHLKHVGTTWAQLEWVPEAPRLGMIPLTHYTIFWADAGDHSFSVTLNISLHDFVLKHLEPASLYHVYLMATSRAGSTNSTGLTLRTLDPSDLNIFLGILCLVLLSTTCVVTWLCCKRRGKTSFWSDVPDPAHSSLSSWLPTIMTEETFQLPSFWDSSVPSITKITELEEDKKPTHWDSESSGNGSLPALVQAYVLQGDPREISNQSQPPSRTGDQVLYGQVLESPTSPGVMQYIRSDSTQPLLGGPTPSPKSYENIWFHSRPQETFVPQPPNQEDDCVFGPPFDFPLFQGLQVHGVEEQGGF

[2] = molecular target: T1, G-CSF receptor on M-NFS60 cells; remark: listed apart in the source
[3] = molecular target: T1, G-CSF receptor on M-NFS60 cells; remark: listed apart in the source
[4] = molecular target: T1, G-CSF receptor on M-NFS60 cells; remark: listed apart in the source
[5] = molecular target: T1, G-CSF receptor on M-NFS60 cells; remark: listed apart in the source

M-NFS60 proliferation assay, Avg EC50 [ng/ml] [1]: 0.025 ng/mL | M-NFS60 proliferation assay, Fold Diff EC50 [X] [1]: 1 fold
Molecule: Neupogen (filgrastim) (from UniProt P09919 31-204) (ligand)

M-NFS60 proliferation assay, Avg EC50 [ng/ml] [1]: 0.077 ng/mL | M-NFS60 proliferation assay, Fold Diff EC50 [X] [1]: 3.2 fold
Molecule: Neulasta (pegfilgrastim) (from UniProt P09919 31-204) (ligand)

M-NFS60 proliferation assay, Avg EC50 [ng/ml] [2]: 0.053 ng/mL | M-NFS60 proliferation assay, Fold Diff EC50 [X] [3]: 1 fold
B1: wild-type bovine G-CSF (ligand)
chain: MTPLGPARSLPQSFLLKCLEQVRKIQADGAELQERLCAAHKLCHPEELMLLRHSLGIPQAPLSSCSSQSLQLTSCLNQLHGGLFLYQGLLQALAGISPELAPTLDTLQLDVTDFATNIWLQMEDLGAAPAVQPTQGAMPTFTSAFQRRAGGVLVASQLHRFLELAYRGLRYLAEP

M-NFS60 proliferation assay, Avg EC50 Values [4]: 0.348 ng/mL
B2: 20k PEG-bR7 (bG-CSF R7pAF, 20K PEG) (ligand)
chain: MTPLGPA[Phe(4-Ac)](PEG 20 kDa)SLPQSFLLKCLEQVRKIQADGAELQERLCAAHKLCHPEELMLLRHSLGIPQAPLSSCSSQSLQLTSCLNQLHGGLFLYQGLLQALAGISPELAPTLDTLQLDVTDFATNIWLQMEDLGAAPAVQPTQGAMPTFTSAFQRRAGGVLVASQLHRFLELAYRGLRYLAEP

M-NFS60 proliferation assay, Avg EC50 Values [4]: 0.363 ng/mL
B3: 20k PEG-bR166 (bG-CSF R166pAF, 20K PEG) (ligand)
chain: MTPLGPARSLPQSFLLKCLEQVRKIQADGAELQERLCAAHKLCHPEELMLLRHSLGIPQAPLSSCSSQSLQLTSCLNQLHGGLFLYQGLLQALAGISPELAPTLDTLQLDVTDFATNIWLQMEDLGAAPAVQPTQGAMPTFTSAFQRRAGGVLVASQLHRFLELAY[Phe(4-Ac)](PEG 20 kDa)GLRYLAEP

M-NFS60 proliferation assay, Avg EC50 Values [5]: 0.477 ng/mL
B4: 20k PEG-bL3 (bG-CSF L3pAF, 20K PEG) (ligand)
chain: TP[Phe(4-Ac)](PEG 20 kDa)GPARSLPQSFLLKCLEQVRKIQADGAELQERLCAAHKLCHPEELMLLRHSLGIPQAPLSSCSSQSLQLTSCLNQLHGGLFLYQGLLQALAGISPELAPTLDTLQLDVTDFATNIWLQMEDLGAAPAVQPTQGAMPTFTSAFQRRAGGVLVASQLHRFLELAYRGLRYLAEP
modifications: not fully specified (N-terminus)

M-NFS60 proliferation assay, Avg EC50 Values [4]: 0.15 ng/mL
B5: 20k PEG-bS62 (bG-CSF S62pAF, 20K PEG) (ligand)
chain: MTPLGPARSLPQSFLLKCLEQVRKIQADGAELQERLCAAHKLCHPEELMLLRHSLGIPQAPL[Phe(4-Ac)](PEG 20 kDa)SCSSQSLQLTSCLNQLHGGLFLYQGLLQALAGISPELAPTLDTLQLDVTDFATNIWLQMEDLGAAPAVQPTQGAMPTFTSAFQRRAGGVLVASQLHRFLELAYRGLRYLAEP

M-NFS60 proliferation assay, Avg EC50 [ng/ml] (batch NK2) [2]: 0.27 ng/mL | M-NFS60 proliferation assay, Fold Diff EC50 [X] vs. WT bG-CSF (batch NK2) [3]: 5.1 fold | M-NFS60 proliferation assay, Avg EC50 Values (batch NK1) [4]: 0.258 ng/mL
B6: bG-CSF T133pAF-20K PEG (ligand)
chain: MTPLGPARSLPQSFLLKCLEQVRKIQADGAELQERLCAAHKLCHPEELMLLRHSLGIPQAPLSSCSSQSLQLTSCLNQLHGGLFLYQGLLQALAGISPELAPTLDTLQLDVTDFATNIWLQMEDLGAAPAVQP[Phe(4-Ac)](PEG 20 kDa (hydroxylamine/oxyamino PEG))QGAMPTFTSAFQRRAGGVLVASQLHRFLELAYRGLRYLAEP
